Results as given in publication PMC3376134, “Regulation of the Escherichia coli HipBA Toxin-Antitoxin System by Proteolysis” (PLoS ONE, 2012).
Positions count from the first letter of the chain named. Names and notes keep the numbering of the source.

T1: HipB72 (Escherichia coli, UniProt P23873 1-72, del73-88)
T1 sequence: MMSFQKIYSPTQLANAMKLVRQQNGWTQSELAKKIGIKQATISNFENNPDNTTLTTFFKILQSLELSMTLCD

T2: HipB (Escherichia coli, UniProt P23873 1-88)
T2 sequence: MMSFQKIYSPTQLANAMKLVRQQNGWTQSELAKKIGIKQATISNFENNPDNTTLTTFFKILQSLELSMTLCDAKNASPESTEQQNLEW

T3: HipB(W88A) (Escherichia coli, UniProt P23873 1-88, W88A)
T3 sequence: T2 sequence with W88A

T4: HipA;HipB (Escherichia coli;Escherichia coli, UniProt P23874;P23873 1-440;1-88, |)
T4 sequence 1: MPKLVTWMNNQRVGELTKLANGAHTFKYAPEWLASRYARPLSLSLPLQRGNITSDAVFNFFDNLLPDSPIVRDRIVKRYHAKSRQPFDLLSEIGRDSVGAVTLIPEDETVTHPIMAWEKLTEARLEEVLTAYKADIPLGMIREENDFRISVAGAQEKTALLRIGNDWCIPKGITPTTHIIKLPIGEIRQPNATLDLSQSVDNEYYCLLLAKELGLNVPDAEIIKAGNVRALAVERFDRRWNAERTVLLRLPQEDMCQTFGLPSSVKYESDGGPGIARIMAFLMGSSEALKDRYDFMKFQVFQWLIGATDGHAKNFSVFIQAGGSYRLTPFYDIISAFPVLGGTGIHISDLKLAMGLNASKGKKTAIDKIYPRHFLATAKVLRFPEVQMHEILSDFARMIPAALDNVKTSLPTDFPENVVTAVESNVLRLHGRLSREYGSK
T4 sequence 2: T2 sequence

B1: hipBA O1O2 operator (dsDNA)
DNA 1: TTATCCGCTTAAGGGGATATTATAAGTTTTATCCTTTAGTGAGGATAA
DNA 2: TTATCCTCACTAAAGGATAAAACTTATAATATCCCCTTAAGCGGATAA
B2: HipB72 (C-terminal truncation of HipB lacking the last 16 residues) (domain or fragment, E. coli, UniProt P23873 1-72, looked up)
chain: T1 sequence
notes: Strain KLE912; also called HipB72 C-terminal truncation protein; pET15b-hipB72; source: E. coli BL21(DE3)pLysS, purified (Ni-NTA)
B3: HipB antitoxin, wild type (natural protein, E. coli, UniProt P23873 1-88, looked up)
chain: T2 sequence
notes: HipB, antitoxin and repressor of the hipBA operon of Escherichia coli, 88 residues; also called HipB WT; pET15b-HipB; source: E. coli BL21(DE3)pLysS, purified (Ni-NTA)
B4: HipB(W88A) (natural protein, E. coli, UniProt P23873 1-88, looked up)
chain: T2 sequence with W88A
notes: HipB of Escherichia coli with the C-terminal tryptophan 88 changed to alanine, made by site-directed mutagenesis in pET15b-hipB; Strain KLE911; also called HipB(W88A) protein; pET15b-hipB w88a; source: E. coli BL21(DE3)pLysS, purified (Ni-NTA)
B5: HipA toxin (wild type HipA protein) (enzyme, E. coli, UniProt P23874 1-440, looked up)
chain: T4 sequence 1

Tests used:
HipB72 = molecular target: T1, HipB72; assay: fluorescence polarization; 1 nM DNA; 20 mM Tris-HCl pH 7.5, 100 mM NaCl, 5% glycerol, 10 C, 1 nM labeled DNA; settings: protein: recombinant; tags: His6 (Ni-NTA purified); chain copies: 2; label: 5'-6-carboxyfluorescein on top strand; blunt
HipB = molecular target: T2, HipB; assay: as above; settings: protein: recombinant; tags: His6 (Ni-NTA purified, pET15b); chain copies: 2; label: 5'-6-carboxyfluorescein on top strand; blunt
HipB(W88A) = molecular target: T3, HipB(W88A); assay: as above; settings: protein: recombinant; tags: His6 (Ni-NTA purified); chain copies: 2; label: 5'-6-carboxyfluorescein on top strand; blunt
HipA;HipB = molecular target: T4, HipA;HipB; assay: fluorescence polarization; HipA titrated into DNA saturated with 50 nM HipB; Kd is formally HipA for DNA-bound HipB; 20 mM Tris-HCl pH 7.5, 100 mM NaCl, 5% glycerol, 10 C, 1 nM labeled DNA; settings: protein: recombinant;recombinant; tags: His6 (Ni-NTA purified, pET28a);His6 (Ni-NTA purified, pET15b); chain copies: 2;4; label: 5'-6-carboxyfluorescein on top strand; blunt
[1] = molecular target: B5; assay: fluorescence polarisation; HipA titrated into 50 nM HipB (or HipB(W88A), HipB72) pre-incubated 2 min with 1 nM 5'-6-carboxyfluorescein-labelled hipBA O1O2 DNA; 20 mM Tris-HCl pH 7.5, 100 mM NaCl, 5% glycerol; 10 °C; the affinity is formally between HipA and HipB bound to the DNA; settings: both partners purified
[2] = molecular target: B5; assay: as above; settings: both partners purified; remark: listed apart in the source
[3] = molecular target: B3; assay: cell-based or functional assay

B1 was tested, and the Kd (HipB72) was 0.4 ± 0.1 nM, the Kd (HipB) was 0.6 ± 0.1 nM and the Kd (HipB(W88A)) was 0.9 ± 0.4 nM. For the same binder, the Kd (HipA;HipB) was 1000 ± 600 nM.

B2: binds [1].

B3 gave a Kd [2] of 1000 ± 600 nM.

B4 showed a Kd [2] of 1200 ± 300 nM.

With B5 the “half-life of His6-HipB (0.48 µM) in the in vitro degradation assay with His6-Lon (0.6 µM) when purified His6-HipA (0.48 µM) is added, against lysozyme as control protein” value [3] was over 3.33 h.
